According to patent US20240269278A1 (NANJING SHUNXIN PHARMACEUTICALS CO LTD OF CHIATAI TIANQING …, published 2024):
Changes are numbered by the printed parent chain. Names and notes keep the numbering of the source.

B1: Xi14A9 (antibody, human IgG4 S228P, kappa, V domains shown)
VH: EVQLQQSGAEVARPGASVKLSCTVSGFNIEDDYIEWVKQRPEQGLEWIGRIDPANDKTKYAPKFQDKATITGDTSSNTAYLQLSSLTSEDTAVYYCTRPGLRRYYSMDYWGQGTSVTVSS
VL: NIVLTQSPKSMSMSVGERVTLSCKASENVVSYVSWYQQKPEQSPKLLIYGASNRYTGVPDRFIGSGSSTDFTLIISSFQPEDLADYHCGQSYSYPLTFGAGTKLELKR
notes: Chimeric: mouse VH on human IgG4 (S228P, EU) constant region, mouse VL on human kappa constant region; made in CHO cells; also called chimeric version of 14A9
B2: Xi2B2 (antibody, human IgG4 S228P, kappa, V domains shown)
VH: EVMLVESGGGLVQPGGSLKLSCAASGFTFSNYYMSWVRQTPEKRLEWVAYISSGGGSTYYPDSVKGRFTISRDNAKNTLYLQMSSLKSEDTAMYYCAWFAYWGQGTLVTVSA
VL: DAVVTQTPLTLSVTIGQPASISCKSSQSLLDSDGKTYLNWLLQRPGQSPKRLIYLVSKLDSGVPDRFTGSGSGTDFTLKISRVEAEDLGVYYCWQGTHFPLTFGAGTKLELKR
notes: Chimeric: mouse VH on human IgG4 (S228P, EU) constant region, mouse VL on human kappa constant region; made in CHO cells; also called chimeric version of 2B2
B3: hz3F10-3.1 (antibody, human IgG4 S228P, kappa, V domains shown)
VH: QVQLVQSGAEVKKPGSSVKVSCKASGYTFSRYWIEWVRQAPGQGLEWMGEFIPGSDTTNYAQKFQGRVTITADISTSTAYMELSSLRSEDTAVYYCARGGLRRMDYWGQGTLVTVSS
VL: DIQMTQSPSSLSASVGDRVTITCRASSSVSSTYLHWYQQKPGKAPKLLIYTTSTLASGVPSRFSGSGSGTSYTLTISSLQPEDFATYYCQQFSDSTWTFGQGTKLEIKR
notes: Humanized 3F10, full-length heavy and light chains, made in CHO cells
B4: hz3F10-1.1 (antibody, human IgG4 S228P, kappa, V domains shown)
VH: B3 VH
VL: B3 VL with S71D, Y72F
notes: as for B3
B5: hz3F10-4.2 (antibody, human IgG4 S228P, kappa, V domains shown)
VH: B3 VH with D73E, S77N
VL: B3 VL with D94E
notes: as for B3
B6: hz3F10-3.2 (antibody, human IgG4 S228P, kappa, V domains shown)
VH: B3 VH with D73E, S77N
VL: B3 VL
notes: as for B3
B7: hz3F10-6.2 (antibody, human IgG4 S228P, kappa, V domains shown)
VH: B3 VH with D73E, S77N
VL: B3 VL with L48W, D94E
notes: as for B3
B8: hz3F10-2.2 (antibody, human IgG4 S228P, kappa, V domains shown)
VH: B3 VH with D73E, S77N
VL: B3 VL with S71D, Y72F, D94E
notes: as for B3
B9: hz3F10-2.1 (antibody, human IgG4 S228P, kappa, V domains shown)
VH: B3 VH
VL: B3 VL with S71D, Y72F, D94E
notes: as for B3
B10: hz3F10-5.1 (antibody, human IgG4 S228P, kappa, V domains shown)
VH: B3 VH
VL: B3 VL with L48W
notes: as for B3
B11: hz3F10-5.2 (antibody, human IgG4 S228P, kappa, V domains shown)
VH: B3 VH with D73E, S77N
VL: B3 VL with L48W
notes: as for B3
B12: hz3F10-1.2 (antibody, human IgG4 S228P, kappa, V domains shown)
VH: B3 VH with D73E, S77N
VL: B3 VL with S71D, Y72F
notes: as for B3
B13: hz3F10-4.1 (antibody, human IgG4 S228P, kappa, V domains shown)
VH: B3 VH
VL: B3 VL with D94E
notes: as for B3
B14: hz3F10-6.1 (antibody, human IgG4 S228P, kappa, V domains shown)
VH: B3 VH
VL: B3 VL with L48W, D94E
notes: as for B3
B15: Xi3F10 (antibody, human IgG4 S228P, kappa, V domains shown)
VH: EVQLQQSVAELMKPGASVKIYCKATGYTFSRYWIEWVKQRPGHGLEWIGEFIPGSDTTNFNEKFKGKATFTAEISSNTAYMQLSSLTSEDSAVYFCARGGLRRMDYWGQGTSVTVSS
VL: DIVMTQTPAIMSASPGEKVTMTCRASSSVSSTYLHWYQQKSGASPKLWIYTTSTLASGVPARFSGSGSGTSYSLTISSVEAEDAATYYCQQFSDSTWTFGGGTKLEIKR
notes: Chimeric: mouse VH on human IgG4 (S228P, EU) constant region, mouse VL on human kappa constant region; made in CHO cells; also called chimeric version of 3F10
B16: hz14A9-2.3 (antibody, human IgG4 S228P, kappa, V domains shown)
VH: QVQLVQSGAEVKKPGASVKVSCKVSGFNIEDDYIEWVRQAPGQGLEWMGRIDPANDKTKYAQKFQGRVTMTGDTSTNTVYMELSSLRSEDTAVYYCARPGLRRYYSMDYWGQGTLVTVSS
VL: DIQMTQSPSSLSASVGDRVTITCKASENVVSYVSWYQQKPGKAPKLLIYGASNRYTGVPSRFIGSGSSTDFTLTISSLQPEDFATYYCGQSYSYPLTFGQGTKLEIKR
B17: hz14A9-2.4 (antibody, human IgG4 S228P, kappa, V domains shown)
VH: B16 VH with A97T
VL: B16 VL
B18: hz16E5-1.2 (antibody, human IgG4 S228P, kappa)
heavy: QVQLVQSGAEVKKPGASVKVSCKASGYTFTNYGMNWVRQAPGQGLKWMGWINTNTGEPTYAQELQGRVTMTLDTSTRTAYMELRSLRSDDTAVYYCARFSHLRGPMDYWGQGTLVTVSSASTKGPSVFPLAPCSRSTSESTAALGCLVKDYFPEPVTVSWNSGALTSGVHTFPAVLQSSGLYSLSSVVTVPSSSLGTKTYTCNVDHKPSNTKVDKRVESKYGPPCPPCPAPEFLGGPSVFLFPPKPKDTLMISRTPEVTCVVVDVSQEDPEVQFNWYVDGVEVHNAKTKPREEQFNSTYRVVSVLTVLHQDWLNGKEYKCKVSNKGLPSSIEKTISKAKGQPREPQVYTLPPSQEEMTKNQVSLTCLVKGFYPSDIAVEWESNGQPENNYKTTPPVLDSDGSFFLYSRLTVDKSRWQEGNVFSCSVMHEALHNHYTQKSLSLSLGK
light: DIQMTQSPSSLSASVGDRVTITCRSSQSLVHSNGYTYLHWYQQKPGKAPKLLIYKVSNRFSGVPSRFSGSGSGTDFTLTISSLQPEDFATYYCSQSTHVPPTFGQGTKLEIKRTVAAPSVFIFPPSDEQLKSGTASVVCLLNNFYPREAKVQWKVDNALQSGNSQESVTEQDSKDSTYSLSSTLTLSKADYEKHKVYACEVTHQGLSSPVTKSFNRGEC
notes: Humanized 16E5, full-length heavy and light chains, made in CHO cells
B19: hz16E5-1.1 (antibody, human IgG4 S228P, kappa)
heavy: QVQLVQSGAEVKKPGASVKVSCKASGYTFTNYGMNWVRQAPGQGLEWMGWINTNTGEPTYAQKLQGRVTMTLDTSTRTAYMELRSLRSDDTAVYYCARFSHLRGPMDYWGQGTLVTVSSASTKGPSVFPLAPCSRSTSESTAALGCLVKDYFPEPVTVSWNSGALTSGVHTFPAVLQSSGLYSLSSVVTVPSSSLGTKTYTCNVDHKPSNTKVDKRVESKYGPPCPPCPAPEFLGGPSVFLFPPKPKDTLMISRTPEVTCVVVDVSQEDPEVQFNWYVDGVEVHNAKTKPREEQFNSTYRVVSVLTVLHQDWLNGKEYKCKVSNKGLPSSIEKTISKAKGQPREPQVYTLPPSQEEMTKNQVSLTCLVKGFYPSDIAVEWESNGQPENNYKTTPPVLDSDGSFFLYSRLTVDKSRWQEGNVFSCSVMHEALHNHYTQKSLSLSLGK
light: B18 light
notes: as for B18
B20: hz16E5-3.1 (antibody, human IgG4 S228P, kappa)
heavy: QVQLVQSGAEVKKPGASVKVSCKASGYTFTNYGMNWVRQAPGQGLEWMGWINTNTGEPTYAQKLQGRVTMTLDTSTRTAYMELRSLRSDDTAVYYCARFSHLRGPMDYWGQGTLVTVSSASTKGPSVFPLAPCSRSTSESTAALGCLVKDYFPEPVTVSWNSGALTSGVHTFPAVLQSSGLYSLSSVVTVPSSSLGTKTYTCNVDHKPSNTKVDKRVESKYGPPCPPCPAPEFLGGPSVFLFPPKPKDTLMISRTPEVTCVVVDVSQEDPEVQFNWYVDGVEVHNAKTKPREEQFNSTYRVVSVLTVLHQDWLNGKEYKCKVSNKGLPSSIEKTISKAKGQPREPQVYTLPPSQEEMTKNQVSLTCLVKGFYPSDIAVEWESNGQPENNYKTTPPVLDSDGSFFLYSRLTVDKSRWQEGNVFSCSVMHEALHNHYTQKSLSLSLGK
light: B18 light with I2A
notes: as for B18
B21: hz16E5-3.3 (antibody, human IgG4 S228P, kappa)
heavy: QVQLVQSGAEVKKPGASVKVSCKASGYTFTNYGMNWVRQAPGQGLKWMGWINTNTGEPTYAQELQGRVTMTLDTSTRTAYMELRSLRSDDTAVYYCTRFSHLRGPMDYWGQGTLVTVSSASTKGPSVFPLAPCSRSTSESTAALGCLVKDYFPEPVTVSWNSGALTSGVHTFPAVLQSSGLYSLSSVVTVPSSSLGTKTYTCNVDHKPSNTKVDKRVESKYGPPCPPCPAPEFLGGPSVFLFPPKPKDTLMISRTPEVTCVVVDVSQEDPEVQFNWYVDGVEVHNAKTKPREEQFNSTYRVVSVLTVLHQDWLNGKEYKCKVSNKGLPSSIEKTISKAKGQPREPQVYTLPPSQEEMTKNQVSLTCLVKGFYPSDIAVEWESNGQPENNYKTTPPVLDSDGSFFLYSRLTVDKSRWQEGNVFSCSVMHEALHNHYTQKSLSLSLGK
light: B18 light with I2A
notes: as for B18
B22: hz16E5-3.2 (antibody, human IgG4 S228P, kappa)
heavy: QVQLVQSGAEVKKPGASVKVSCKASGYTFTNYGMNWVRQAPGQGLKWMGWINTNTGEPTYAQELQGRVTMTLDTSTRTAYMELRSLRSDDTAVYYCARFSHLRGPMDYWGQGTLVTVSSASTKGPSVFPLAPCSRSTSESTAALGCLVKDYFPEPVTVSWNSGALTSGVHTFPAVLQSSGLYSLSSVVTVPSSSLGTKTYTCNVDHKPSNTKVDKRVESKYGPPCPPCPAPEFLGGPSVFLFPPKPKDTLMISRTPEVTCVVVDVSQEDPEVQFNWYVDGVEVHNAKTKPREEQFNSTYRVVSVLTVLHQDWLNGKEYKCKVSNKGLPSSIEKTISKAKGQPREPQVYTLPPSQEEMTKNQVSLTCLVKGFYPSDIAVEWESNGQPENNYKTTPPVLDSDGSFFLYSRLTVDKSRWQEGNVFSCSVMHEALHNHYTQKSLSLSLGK
light: B18 light with I2A
notes: as for B18
B23: hz16E5-1.3 (antibody, human IgG4 S228P, kappa)
heavy: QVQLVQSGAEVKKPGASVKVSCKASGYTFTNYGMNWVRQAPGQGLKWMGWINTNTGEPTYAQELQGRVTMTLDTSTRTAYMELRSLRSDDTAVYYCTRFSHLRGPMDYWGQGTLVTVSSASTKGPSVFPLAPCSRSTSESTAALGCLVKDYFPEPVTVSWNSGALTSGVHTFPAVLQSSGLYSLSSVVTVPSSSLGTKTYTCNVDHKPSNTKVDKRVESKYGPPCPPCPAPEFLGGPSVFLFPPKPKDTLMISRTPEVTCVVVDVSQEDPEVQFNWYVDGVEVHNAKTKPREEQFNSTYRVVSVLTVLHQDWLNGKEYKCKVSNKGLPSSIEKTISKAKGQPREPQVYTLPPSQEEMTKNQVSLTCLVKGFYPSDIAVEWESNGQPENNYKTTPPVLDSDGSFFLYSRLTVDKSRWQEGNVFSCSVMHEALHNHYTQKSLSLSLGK
light: B18 light
notes: as for B18
B24: Xi2H8 (antibody, human IgG4 S228P, kappa, V domains shown)
VH: QVQLKESGPGLVAPSQSLSITCTVSGFSLTNYGVHWVRQPPGKGLEWLGIIWAGGSTNYNSALMSRLSISKDNSKSQVFLKMNSLQTDDTAMYYCARDDYASMDYWGQGTSVTVSS
VL: DAFMTQTPLSLPVSLGDQASISCRSSQSLVHSNGNTYLHWYLQKPGQSPKLLIYKVSNRFSGVPDRFSGSGSGTDFTLKISRVEAEDLGVYFCSQSTHVPYTLGGGTKLEIKR
notes: Chimeric: mouse VH on human IgG4 (S228P, EU) constant region, mouse VL on human kappa constant region; made in CHO cells; also called chimeric version of 2H8
B25: Xi16E5 (antibody, human IgG4 S228P, kappa, V domains shown)
VH: EVQLQQSGPELKKPGETVKISCKASGYTFTNYGMNWVKQVPGKGLKWMGWINTNTGEPTYAEEFKGRFAFSLETSARTAFLQINNLKNEDTATYFCTRFSHLRGPMDYWGQGASVTVSS
VL: B24 VL with F3V, N35Y, V83L, Y101P, L103F
notes: Chimeric: mouse VH on human IgG4 (S228P, EU) constant region, mouse VL on human kappa constant region; made in CHO cells; also called chimeric version of 16E5

What was measured:
[1] = target: T1, human CD47 protein, His Tag (ACRObiosystems, Cat. No. CD7-H5227) (human, UniProt Q08722 19-139); test: Biacore SPR, antibody captured on CM5 chip, CD47-His protein, 25 C
T1 construct: Bought protein; also called hCD47-His Tag protein; not shown: His tag
T1 sequence (Q08722 19-139 limits assumed): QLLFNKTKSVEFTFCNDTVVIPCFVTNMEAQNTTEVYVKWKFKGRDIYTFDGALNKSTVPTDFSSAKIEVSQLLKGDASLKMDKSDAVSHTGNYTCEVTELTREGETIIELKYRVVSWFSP
Method: (§1) The equilibrium dissociation constants KD (in unit M) were obtained by measuring the binding kinetics of the human CD47 protein (human CD47 protein, His Tag; ACRObiosystems, Cat. No. CD7-H5227) and cynomolgus monkey CD47 protein (cynomolgus/rhesus macaque CD47 protein, His Tag; ACRObiosystems, Cat. No. CD7-C52H1) to anti-CD47 antibodies (chimeric or humanized) using Biacore. The Biacore analysis was performed at 25° C. and data were recorded at a rate of 1 Hz.
(§2) At the beginning of each cycle, the diluted test antibody (1.5 μg/mL) was injected onto the experimental flowcell and maintained for 1 min to be captured.

[2] = target: T2, cynomolgus/rhesus macaque CD47 protein, His Tag (ACRObiosystems, Cat. No. CD7-C52H1) (cynomolgus monkey, UniProt A0A2K5X523 19-139); test: as above
T2 construct: Bought protein; also called Cynomolgus monkey CD47 protein; not shown: His tag
Method: as §1, §2

Kd [1] [nM]	Kd [2] [nM]	Binder
2.35	1.58	B1
7.48	1.2	B2
1.53		B3
0.946	1.31	B4
1.34	1.86	B5
1.15	1.47	B6
0.765	1.15	B7
0.779	1.14	B8
0.836	1.17	B9
0.96	1.3	B10
0.896	1.4	B11
0.904	1.33	B12
1.42	1.62	B13
0.592	2.47	B14
0.767	1.04	B15
0.204	3.07	B16
8.55	2	B17
9.31	2.26	B18
18.9	4.77	B19
6.28	3.28	B20
7.13	1.87	B21
17.1	3.1	B22
15.3	2.73	B23
0.35	1.25	B24
9.06	2.92	B25
